Experimental data taken from US20230235013A1 (MABSOLVE, published 2023).

Columns and labels:
[1] = molecular target: T1, Sheep Fc-CD52 fusion protein (Absolute Antibody Cat. No. PR00205) (human, UniProt P31358 25-36); assay: ELISA, antigen coated, antibody 5 µg/mL
T1 construct: bought; also called CD52 antigen; human CD52; not shown: sheep Fc

[2] = molecular target: T2, human FcγRIIB (Sino Biological Cat. No. 10259-H08H) (human, UniProt P31994 43-217); assay: SPR, captured His-receptor
T2 construct: bought
T2 sequence (looked up): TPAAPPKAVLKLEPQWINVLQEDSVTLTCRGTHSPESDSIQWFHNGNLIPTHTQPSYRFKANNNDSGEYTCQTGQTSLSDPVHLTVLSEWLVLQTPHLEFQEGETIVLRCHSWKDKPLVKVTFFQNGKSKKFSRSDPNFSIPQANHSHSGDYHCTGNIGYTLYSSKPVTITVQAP

[3] = molecular target: T3, mouse FcγRI (Sino Biological Cat. No. 50086-M08H) (mouse, UniProt P26151 25-297); assay: SPR, captured His-receptor
T3 construct: bought
T3 sequence (looked up): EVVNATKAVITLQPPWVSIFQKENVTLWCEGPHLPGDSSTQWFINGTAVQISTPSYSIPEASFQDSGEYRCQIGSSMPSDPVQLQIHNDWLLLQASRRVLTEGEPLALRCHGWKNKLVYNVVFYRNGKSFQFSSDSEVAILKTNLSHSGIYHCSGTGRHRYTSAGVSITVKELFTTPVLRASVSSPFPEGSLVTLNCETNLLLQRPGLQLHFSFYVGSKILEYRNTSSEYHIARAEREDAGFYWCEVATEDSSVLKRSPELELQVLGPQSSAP

[4] = molecular target: T4, Histidine-tagged recombinant human FcγRI (CD64) (human, UniProt P12314 16-288); assay: SPR, captured His-receptor
T4 construct: bought; also called Sino Biological Cat. No. 12056-H08H

[5] = molecular target: T5, human FcγRIIIB (NA2 allotype, Sino Biological Cat. No. 11046-H08H) (human, UniProt O75015 17-200); assay: SPR, captured His-receptor
T5 construct: bought; also called human FcγRIIIb NA2 allele

[6] = molecular target: T6, human FcγRIIIA (F158, Sino Biological Cat. No. 10389-H08H) (human, UniProt P08637 17-208); assay: SPR, captured His-receptor
T6 construct: bought; also called human FcγRIIIa F158 allele

[7] = molecular target: human FcγRIIIa V158 allele (human, UniProt P08637 17-208, limits assumed); assay: SPR, captured His-receptor
[8] = molecular target: T7, human FcγRIIA (R131, Sino Biological Cat. No. 10374-H08H) (human, UniProt P12318 34-218); assay: SPR, captured His-receptor
T7 construct: bought; also called human FcγRIIa R131 allele; FcγRII allele R131
T7 sequence (looked up): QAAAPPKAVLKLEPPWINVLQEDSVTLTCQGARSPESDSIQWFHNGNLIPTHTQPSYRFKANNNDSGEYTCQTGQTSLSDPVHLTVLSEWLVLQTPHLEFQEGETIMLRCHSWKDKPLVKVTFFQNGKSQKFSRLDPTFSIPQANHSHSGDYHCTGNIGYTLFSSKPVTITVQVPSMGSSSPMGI

[9] = molecular target: T8, Histidine-tagged recombinant human FcγRI (CD64) (human, UniProt P12314 16-288, limits assumed); assay: SPR, His-FcγRI captured; Expt 2 Rep 2;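 note: antibody analyte injected at 100 µg/mL for 1 min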
T8 construct: bought

[10] = molecular target: T8, Histidine-tagged recombinant human …; assay: SPR, His-FcγRI captured; Expt 1 Rep 1;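 note: antibody analyte injected at 100 µg/mL for 1 min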
[11] = molecular target: T8, Histidine-tagged recombinant human …; assay: SPR, His-FcγRI captured; Expt 1 Rep 2;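 note: antibody analyte injected at 100 µg/mL for 1 min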
cynomolgus monkey FcRn = molecular target: T9, cynomolgus monkey FcRn (cynomolgus monkey, UniProt Q8SPV9 24-297; Q8SPW0 21-119); assay: SPR pH 6.0, FcRn captured
T9 construct: bought; also called cynomolgus FcRn

human FcγRIIA (R131) = molecular target: T10, human FcγRIIA (R131) (human, UniProt P12318 34-218, limits assumed); assay: SPR, receptor captured on anti-His chip
T10 construct: bought; R131 allele
T10 sequence (looked up): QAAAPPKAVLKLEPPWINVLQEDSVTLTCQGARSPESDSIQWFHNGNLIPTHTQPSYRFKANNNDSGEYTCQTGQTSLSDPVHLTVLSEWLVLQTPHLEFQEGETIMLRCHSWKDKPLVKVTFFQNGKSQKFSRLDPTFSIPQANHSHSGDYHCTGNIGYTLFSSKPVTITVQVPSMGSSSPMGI

human FcγRIIIA (F158) = molecular target: T11, human FcγRIIIA (F158) (human, UniProt P08637 17-208); assay: SPR, receptor captured on anti-His chip
T11 construct: bought; F158 allele

human FcRn [12] = molecular target: T12, human FcRn (human, UniProt P55899 24-297; P61769 21-119); assay: SPR pH 6.0, FcRn captured; Expt 1
T12 construct: bought

[13] = molecular target: T8, Histidine-tagged recombinant human …; assay: SPR, receptor captured on anti-His chip
mouse FcγRI = molecular target: T13, mouse FcγRI (mouse, UniProt P26151 25-297); assay: SPR, receptor captured on anti-His chip
T13 construct: bought; captured on anti-histidine chip
T13 sequence (looked up): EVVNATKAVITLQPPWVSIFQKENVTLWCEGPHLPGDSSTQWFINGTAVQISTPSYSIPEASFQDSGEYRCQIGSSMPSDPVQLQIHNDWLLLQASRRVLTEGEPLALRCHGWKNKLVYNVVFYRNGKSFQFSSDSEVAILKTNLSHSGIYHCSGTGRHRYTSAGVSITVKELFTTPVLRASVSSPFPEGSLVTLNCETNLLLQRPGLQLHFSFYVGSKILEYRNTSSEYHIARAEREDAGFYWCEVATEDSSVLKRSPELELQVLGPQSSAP

rat FcγRI = molecular target: T14, rat FcγRI (rat, UniProt A0A0B4J2J0 16-285); assay: SPR, receptor captured on anti-His chip
T14 construct: bought; captured on anti-histidine chip
T14 sequence: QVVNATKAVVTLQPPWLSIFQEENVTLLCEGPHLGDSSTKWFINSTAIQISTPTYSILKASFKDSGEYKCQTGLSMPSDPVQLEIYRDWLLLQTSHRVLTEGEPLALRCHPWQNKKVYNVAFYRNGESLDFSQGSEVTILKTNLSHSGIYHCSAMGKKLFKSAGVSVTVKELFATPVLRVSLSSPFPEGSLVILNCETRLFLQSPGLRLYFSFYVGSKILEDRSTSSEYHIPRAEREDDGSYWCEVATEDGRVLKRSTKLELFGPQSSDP

rabbit FcγRI = molecular target: T15, rabbit FcγRI (rabbit); assay: SPR, receptor captured on anti-His chip
T15 construct: bought; captured on anti-histidine chip

human FcRn [14] = molecular target: T12, human FcRn; assay: SPR pH 6.0, FcRn captured; Expt 2

T6 sequence (P08637 17-208 limits assumed): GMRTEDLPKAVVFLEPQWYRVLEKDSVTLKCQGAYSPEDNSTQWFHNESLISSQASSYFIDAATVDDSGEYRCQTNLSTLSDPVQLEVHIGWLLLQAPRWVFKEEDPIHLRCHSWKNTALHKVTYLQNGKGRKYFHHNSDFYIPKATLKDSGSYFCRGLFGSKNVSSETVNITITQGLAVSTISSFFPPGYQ
Chain of human FcγRIIIa V158 allele (P08637 17-208 F176V limits assumed): as the sequence (P08637 17-208 limits assumed) above, with F160V counted along it
T12 sequence (P55899 24-297 limits assumed, chain 1 of 2): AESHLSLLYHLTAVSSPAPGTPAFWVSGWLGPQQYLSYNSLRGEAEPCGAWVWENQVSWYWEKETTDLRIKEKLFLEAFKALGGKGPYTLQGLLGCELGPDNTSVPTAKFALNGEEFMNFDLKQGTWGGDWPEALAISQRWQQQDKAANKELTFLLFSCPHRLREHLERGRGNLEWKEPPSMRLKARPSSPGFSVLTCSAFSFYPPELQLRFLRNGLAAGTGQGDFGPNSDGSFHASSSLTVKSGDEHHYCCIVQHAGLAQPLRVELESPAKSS
T12 sequence (P61769 21-119 limits assumed, chain 2 of 2): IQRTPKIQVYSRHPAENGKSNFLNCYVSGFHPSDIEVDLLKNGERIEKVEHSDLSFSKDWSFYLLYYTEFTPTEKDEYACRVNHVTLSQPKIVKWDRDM
T11 sequence (P08637 17-208 limits assumed): as the sequence (P08637 17-208 limits assumed) above

Binder	Mean Absorbance [1] [absorbance]	binding result [2]	binding result [3]	binding result [4]	binding result [5]	binding result [6]	binding result [7]	binding result [8]	Corrected response (RU) [9] [RU]	Corrected response (RU) [10] [RU]	Corrected response (RU) [11] [RU]	further results
anti-CD52 human IgG1 L234T/L235Q/G236R (antibody, also called 4-60; copies: 2 + 2) heavy: QVQLQESGPGLVRPSQTLSLTCTVSGFTFTDFYMNWVRQPPGRGLEWIGFIRDKAKGYTTEYNPSVKGRVTMLVDTSKNQFSLRLSSVTAADTAVYYCAREGHTAAPFDYWGQGSLVTVSSASTKGPSVFPLAPSSKSTSGGTAALGCLVKDYFPEPVTVSWNSGALTSGVHTFPAVLQSSGLYSLSSVVTVPSSSLGTQTYICNVNHKPSNTKVDKKVEPKSCDKTHTCPPCPAPETQRGPSVFLFPPKPKDTLMISRTPEVTCVVVDVSHEDPEVKFNWYVDGVEVHNAKTKPREEQYNSTYRVVSVLTVLHQDWLNGKEYKCKVSNKALPAPIEKTISKAKGQPREPQVYTLPPSRDELTKNQVSLTCLVKGFYPSDIAVEWESNGQPENNYKTTPPVLDSDGSFFLYSKLTVDKSRWQQGNVFSCSVMHEALHNHYTQKSLSLSPGK light: not shown	1.35	no binding (tested: 100 µg/mL)	no binding (tested: 100 µg/mL)	no binding (tested: 100 µg/mL)	no binding (tested: 100 µg/mL)	no binding (tested: 100 µg/mL)	no binding (tested: 100 µg/mL)	no binding (tested: 100 µg/mL)				
anti-CD52 human IgG1 L234T/L235T/G236R (antibody, also called 4-63; copies: 2 + 2) heavy: QVQLQESGPGLVRPSQTLSLTCTVSGFTFTDFYMNWVRQPPGRGLEWIGFIRDKAKGYTTEYNPSVKGRVTMLVDTSKNQFSLRLSSVTAADTAVYYCAREGHTAAPFDYWGQGSLVTVSSASTKGPSVFPLAPSSKSTSGGTAALGCLVKDYFPEPVTVSWNSGALTSGVHTFPAVLQSSGLYSLSSVVTVPSSSLGTQTYICNVNHKPSNTKVDKKVEPKSCDKTHTCPPCPAPETTRGPSVFLFPPKPKDTLMISRTPEVTCVVVDVSHEDPEVKFNWYVDGVEVHNAKTKPREEQYNSTYRVVSVLTVLHQDWLNGKEYKCKVSNKALPAPIEKTISKAKGQPREPQVYTLPPSRDELTKNQVSLTCLVKGFYPSDIAVEWESNGQPENNYKTTPPVLDSDGSFFLYSKLTVDKSRWQQGNVFSCSVMHEALHNHYTQKSLSLSPGK light: not shown	1.48	no binding (tested: 100 µg/mL)	no binding (tested: 100 µg/mL)	no binding (tested: 100 µg/mL)	no binding (tested: 100 µg/mL)	no binding (tested: 100 µg/mL)	no binding (tested: 100 µg/mL)	no binding (tested: 100 µg/mL)				
anti-CD20 human IgG1 L234S/L235T (antibody, also called 2-87) heavy: not shown light: QIVLSQSPAILSASPGEKVTMTCRASSSVSYIHWFQQKPGSSPKPWIYATSNLASGVPVRFSGSGSGTSYSLTISRVEAEDAATYYCQQWTSNPPTFGGGTKLEIKRTVAAPSVFIFPPSDEQLKSGTASVVCLLNNFYPREAKVQWKVDNALQSGNSQESVTEQDSKDSTYSLSSTLTLSKADYEKHKVYACEVTHQGLSSPVTKSFNRGEC									62.4	62.9	54.1	
anti-CD20 human IgG1 N297Q (aglycosyl) (antibody, also called 2-67) heavy: not shown light: QIVLSQSPAILSASPGEKVTMTCRASSSVSYIHWFQQKPGSSPKPWIYATSNLASGVPVRFSGSGSGTSYSLTISRVEAEDAATYYCQQWTSNPPTFGGGTKLEIKRTVAAPSVFIFPPSDEQLKSGTASVVCLLNNFYPREAKVQWKVDNALQSGNSQESVTEQDSKDSTYSLSSTLTLSKADYEKHKVYACEVTHQGLSSPVTKSFNRGEC												Corrected response (RU) (cynomolgus monkey FcRn): 1040 RU; Corrected response (RU) (human FcγRIIA (R131)): 9.4 RU; Corrected response (RU) (human FcγRIIIA (F158)): -1.4 RU; Corrected response (RU) (human FcRn [12]): 426 RU; Corrected response (RU) [13]: 578 RU; Corrected response (RU) (mouse FcγRI): 49.3 RU; Corrected response (RU) (rat FcγRI): 1470 RU; Corrected response (RU) (rabbit FcγRI): 410 RU; Corrected response (RU) (human FcRn [14]): 430 RU
anti-CD20 human IgG1 L235T/G236R (antibody, also called 2-86) heavy: not shown light: QIVLSQSPAILSASPGEKVTMTCRASSSVSYIHWFQQKPGSSPKPWIYATSNLASGVPVRFSGSGSGTSYSLTISRVEAEDAATYYCQQWTSNPPTFGGGTKLEIKRTVAAPSVFIFPPSDEQLKSGTASVVCLLNNFYPREAKVQWKVDNALQSGNSQESVTEQDSKDSTYSLSSTLTLSKADYEKHKVYACEVTHQGLSSPVTKSFNRGEC									0	-9.4	-10.6	
